According to a protein production outcome set (Wang et al. 2014):

Assay: label from the status in PepcDB records

Sequence	protein production
MSHHVQREIRYNFEFDHRIRACFIGAGGHAYRNVYPALRYAPVELSGICDLDIGRAEKFAKLFGAGKAYTDHREMLEQEKPELVFLVTAYHPDGRVQATDLALDALASGAHVWMEKPTAASLEDIERLQAASAAAGRMVMTGLKKTFFPTIEKLRDLIGSPGFGRLTSINVRYPQSLPGQEDRADLVKMQSFLDHIYHPGAILHFLGGEIERAGYEWEALTGATITSLRFHSGAIGTLHLAAGQSGSSIFERVEIIGEGANAIVENGSRLTYFRKADLPSYGRAASFIQPDENAALFYEPEHSLGQLYNNNLFYLGYVPEILHLTDAILSGTPISRGTLEIAREIMKLFEFYRRTDAGVTTNL	failed
MSIDIQLFYLPLHTNNPLILNKQMKLRNVSAGIVLCLTMVSCIQDEALNVEAAIDGCSGTNIQLSTINPSSKTASIYVSKSTDLSALEIKFTLPDGASIEPVNAIANDAPPKYDFSTSQIPITPEQTLEQYQRKFRVTSESETTEAVYTITVIKSELPTNFHFENLVDGSSDYHELYEFNQQQGETLQWASGNPGFKLTGMAKSPFDYPTLQTEGYIGKGIRLETKSTGDFGEKVKMPIAAGNLFIGTFIVKDALRDAKAATKFGFPFFKHPKTLKGYYKFQPGTVYISGTDENRKPIIDPSMEGKDKGDIYAVLYEADDVEDFLDGYNSLNSNKIIALARIPSIEKTSEWKQFELPFEYKKAIDESALKEGKYKLAVVFSSSINGAEFKGSVGSTLWIDEVTIQCKEDNE	failed
MSIDWAALGSVFGVSLVVTVGLVGLFTLGIVGLTKKESAEGGSAALATTGAYACFAACAAAVAYGIYLIVA	failed
MSIEATLLARCESKCELCSSESPLTAYAVPPHGNVTVDTAIMVCDKCHSEIEEPKDINHWRCLNESMWSQVPAVQVTAWRQLTRLNSESWAQDALDMMYMEEEQKNWAMTGMSADDKTVDCNGTELKKGDDVTVIKDLPVKGTNQVIKQGTVIRGISLGDDPKLISGKANGGQSMYVIAEYCRKKLEHHHHHH	failed
MSIEKKVGFFFIAGLVLLGVMLELGEKWNPFQKAIPYKTYLSSTTGLKLGDPVRLAGVEVGKITKIAIADSRVEVAFEVKPGTAIKADSVATIRLTNLLGGQFLGLSFGSPDAPVLPPGSAVKSRETANIDVIVDNVGDLAKDAKVLIKDLTVNQKEVFQKVSSMLDENRGNLRGAIENMNSITTKMDRGQGSLALLLNDKSLYRNTNELAASMKNVTAKIEKGEGSLGKFVNDDAFYRDAKGAVANLNDGAKDIKEIAAKINRGEGSVGKLVNDESLYNELRDASKNVGEVAKKINNGQGTLGKLVNDDTLYRDTTAAMKKLDKATEGLSDTGPISVIGSMVGTLFLEHHHHHH	not failed
MSIEPDGTVNRPEENIHLLQLHDSPVMRWLYLSIGMTALFMGILGIFLPILPTTPFILLAAGCFARSSERFHSYLLNHRIAGPIIREWCEYRSVARHVKRWAYLVMALSFGSSILIVSSWWLKGMLALLAMILFTFIWRLPVRDQSR	failed
MSIFTAAMIALVYWISQAKVWYGFSIMRMPLSIAPIMGLIFNDMPTALSVGATLQMIYIGSIAPGGNPPADEGLASCIAIPIALTAGIKPEIAISLAIPLGLLGVVLENVRKTLNTTFIHMADRYAEKGDIKGIQRAATIYPLLLAFPMRFVPVFIACLYGPDAIASFVNLLPAWSTNGLAIAGNILPALGFAITIIVIGKKQYIPLFIIGFFLVTYSGLNTIGISIFGLCAVLLYMQSQNTKGTKNG	failed
MSILHTVNKSPFERNSLESCLKFATEGASVLLFEDGIYAALAGTRVESQVTEALGKLKLYVLGPDLKARGFSDERVIPGISVVDYAGFVDLTTECDTVQAWL	not failed
MSILKVIKQKWVALGALLGSGALVGLSTNLAKVAYGQDLAPFPFLTWSLAGATLILGSISFLTKQTPPTNTGAIKYYFIAGFFSVAGSNLILFSAVSHVGVSFVVLVISLTPIFTYIAALALGMEIFSRWRVASVIFSLAGTALLVTAKLSLPETNHLWILITLIGPVLLASGNIYRTSHWPKGAKPESLAPGMLLAATATLVLAAISIQGVSLFALFNTENIGLIVLQSIIFSGQFLLLFVLQKAGGPVFLSLTGAVSAAFGIPFAMALLDEPMLPALAPSALLIVTGIIFMMKEQAISNA	failed
MSILTIILIVLLVILLFKVGLSILRFLISVGIVLLCIYLGYQGVLWLFEHFQNFSGFIQ	failed
MSIMKDPNHSPHSGGMLLGFIGVAIFSQTLPFTRMAVAELDATFVALGRAVIAAALALALLAMRGALASGRRPRGGQWLRLAVTALGVVVGFPVFSSLAMREVPSGHGAIVIGLLPLATAVFAAWFGNERPSLGFWLSALAGSALVVAFALWQGAGGLQHADWYLFLAVVLGALGYAEGGKLSRELGGLETISWALVVSLPVLAPVVAWLGLEHAASIAAASPRAWLGMAYVSVFSMFIGFLFWYAGLAKGGVARVGQIQLLQPFLTLAGGALILAEPLDAATVAFAVAVIAVVALGRRAAVRNTAPAMPLASAAEEAPPILPGRLH	failed
MSINIDSGQDSDQEHDDVMYPQVLPFVLIHAGCLAAIWSGVSWQAVAICVALYWLRMFGITAGYHRYFSHRAYATSRAFQFILAFLAQSSAQKSVLWWAAKHRHHHLHSDTAQDVHSPRHKGFVYSHLGWIFYRQHDATDLVKVSDLASYPELMWLHRLELLPAVVLAGLCFLIAGWSGLVVGFMWSTVVLYHATFCINSLAHVHGRRRYVTGDDSRNNWLLALLTMGEGWHNNHHAYQASARQGFYWYEVDLTYYALVALSWLGIVWDLKLPPRQVLRNEHRLGSRVVKQAAEQLAARFDPEHIALAIRTSIHETELSVRDALSLLQHRADLRLSSMPTREQLLAEAQRMFAKTISLDDIVDRAYELLHDSVGFLLATPALSANTNAKSGI	failed
MSINIISIVSIIIWILLITELIKPSKEQNGRKIVTLVTAGSASTLILTVSFIQNIPFWN	failed
MSINLQLETPRLLLREFQNSDKVAFAAYRSDPGTAKYQSWDTPYSEAQAEAFIESLQHLTSSILGEWYQLAIELKSTRQIIGDCAFCILAEDGKQGEIGFTLARKYQGNGYGTEAVIFLLNYLFNHLNLHRVRANCDPENLASIKLLERVGMRLEGRFIKSLWFKNNWVDEMWFAILQDEFTAVNV	failed
MSINLRSSGCSSPISATLERRLDSEVQTRANNVSFEQTKEKIRKMLEKVELSVSAYDTSWVAMVPSPSSQNAPLFPQCVKWLLDNQHEDGSWGLDNHDHQSLKKDVLSSTLASILALKKWGIGERQINKGLQFIELNSALVTDETIQKPTGFDIIFPGMIKYARDLNLTIPLGSEVVDDMIRKRDLDLKCDSEKFSKGREAYLAYVLEGTRNLKDWDLIVKYQRKNGSLFDSPATTAAAFTQFGNDGCLRYLCSLLQKFEAAVPSVYPFDQYARLSIIVTLESLGIDRDFKTEIKSILDETYRYWLRGDEEICLDLATCALAFRLLLAHGYDVSYDPLKPFAEESGFSDTLEGYVKNTFSVLELFKAAQSYPHESALKKQCCWTKQYLEMELSSWVKTSVRDKYLKKEVEDALAFPSYASLERSDHRRKILNGSAVENTRVTKTSYRLHNICTSDILKLAVDDFNFCQSIHREEMERLDRWIVENRLQELKFARQKLAYCYFSGAATLFSPELSDARISWAKGGVLTTVVDDFFDVGGSKEELENLIHLVEKWDLNGVPEYSSEHVEIIFSVLRDTILETGDKAFTYQGRNVTHHIVKIWLDLLKSMLREAEWSSDKSTPSLEDYMENAYISFALGPIVLPATYLIGPPLPEKTVDSHQYNQLYKLVSTMGRLLNDIQGFKRESAEGKLNAVSLHMKHERDNRSKEVIIESMKGLAERKREELHKLVLEEKGSVVPRECKEAFLKMSKVLNLFYRKDDGFTSNDLMSLVKSVIYEPVSLQEESLT	failed
MSIPNHVSTTEVVLLELEILLTIISIGAWGGFVSYLLRKDKTEYNSSHESIKYCLTQIVISCFTSFLLSAIAIEKECSFNIVLLAAGLGGVFASPILKILGRRIKKIIEGNNSD	failed
MSIPTDVVSLQIMAQVYQKKGLQSIFKKTVESLVEHVPYIDWAGIYMYDQLDYKLVAASNFEEDLRWDCNGELKFPIKNNEDKEVGMLIVRTLQPIAFDVTDVSTLETIATAIGQESYAN	failed
MSIRILPENEIKPSASAFEIPPLLFANPKNLYTRRAKRLRELAKNNPLRDYLEFAAHLVDIQLTLLETAPIGNYAEKLTAYLTENQGQKPLNKQQFARDEKWLELLLALIKQCKPYATGAILTTLEFLEKASYAELNNLADHLLNERYEQVSPDQSVFIWLALSLYWTQLAQQLPRHTQAEIGERHTCPVCGSAPITSVIHLDKTQGLRYLHCALCESEWNMTRAQCSNCDESGDLNYWSFDTVEAPIKAESCGDCHSYLKVLYQEKDPYVEPLADDLASLMLDIEMEQKGFVRSGLNPFLFSIE	not failed
MSIRLRKTVMSVLLGALLAGNLLPAQADTQDRLPDIGTTAGGTLSINQELAMGDFYVRQLRAGAPLINDPLLSDYINQLGNRLVKQADSVRTPFHFYLIRNDDINAFAFFGGNVVLHSALFRYADSESELASVLAHEISHVTQRHLARSMESQQRSAPLTWVGALGSILLAMANPQLGMAALSGTLAGAQQGMITFTQSNEQEADRIGIQVLQRAGFDPQAMPNFLQKLADQSRYASRPPEMLLTHPLPESRLSDARNRANQMRPTPVQSSQDFLFAKIRTFGMYGSPDRPLNDDLLVQWEKGNVREQLAAKYGRAIQLYQAKKYDEARNVLQPLLSSAPDNPWFLDMMTDIDLGQNRAAQAIARLQNVTGMQANPVLQLNLANAYVEGKQPAAAGKILYRYTYAHPDDPNGWDLLAQTAAAQGQRAEELAARAESLALNGQLDQSIRLLSNASSLVKLGSLEQARYDARIDQLRQLQQRFRQYQKS	failed
MSITATHDTSSKGRHALPALALLLLMTLSGCAARDMGDGTSPSLMERHATGKSLAPDAPGTPQRQGTPAAEAEAHLQRGLAYLAQDRPELAFEHFSRAASLAPEMVEPRLQRARLLVRRGMPNEAAADIEAVLAASPQHARAWELAGMVAFDRGLLDEAEADFTRAITLDPDLASCYAHLGAVHDYKGRPDLARDVYAAALVRFPQSGELHNNLGVAFSMLGDDASALHHFHEAVVLGASSERSWNNMGLALCRLGRFDEAFEAFRNAGGEAAAHNNLGYFFLVNGDASLAVQHLQRAVELEPRYYVRAAENLKRARLAARFAAGGVPVPAAGPQTGGIAGTPVNKAGVLPPATGKGPGTRTTGAGERVIQ	failed
MSITRRVRLSVDTCCYEAEIAGILRPQLLKGRMSVREEFDAWAAEGKDRGMEDRHWHTAKHVLARMPVEPGDTVLDLGTGSGYALRALRDTNDAGPCYGLDGSPEMLRNAREYTDDDGIGFLRGDFDALPFATDSIDHVFSMEAFYYASDPPHTLEEIARVLRPGGTANIAVNYYEENVHSHEWQEFIDIEMTRWSADEYREAFREAGLAVAAQDTIPDREVEIPPADTFPTDEFETREAMVERYRELGTLLTVGVATE	failed
MSIVSISYNQEEYIREALDGFAAQRTEFPVEVIIADDASTDATPRIIGEYAARYPQLFRPILRQTNIGVHANFKDVLSAARGEYLALCEGDDYWTDPLKLSKQVKYLDRHPETTVCFHPVRVIYEDGAKDSEFPPLSWRRDLSVDALLARNFIQTNSVVYRRQPSYDDIPANVMPIDWYLHVRHAVGGEIAMLPETMAVYRRHAHGIWHSAYTDRRKFWETRGHGMAATLEAMLDLVHGHREREAIVGEVSAWVLREIGKTPGRQGRALLLKSIADHPRMTMLSLQHRWAQTPWRRFKRRLSTELSSLAALAYATRRRALEGRDGGYRETTSPPTGRGRNVRGSHA	failed
MSIVVPAYEEAQSLPELADGVRAACEEAGLSFRLWIIDDGSRDETWEVVRGLCEDDPRVAGVRFRRNYGKSAALAVGFDRVQGRYVATMDADLQDDPDEIPALIDKLEEGGHDLVSGWKKDRKDPLRKTLPSRFFNWVTRLFSGLPLHDFNCGLKVYRRPVVKSIDVYGELHRYIPLLAKWEGYDRVAEKEVQHHPRKYGTTKFGVERFIQGFLDLITVVFLTRYAVRPMHFFGSMGTVAFALGFLVSLWLSFDKLVLGHPIGDRPLLLLGVLLILFGSQMFTTGLLGEMIIRPRMEDPSTYEVAEATGLADEAADVLEG	failed
